Reference: patent US20110189729

Biological target: lambda integrase Int-h/218 h/218 mutant (substitutions not given) (Bacteriophage lambda) (UniProt P03700)
Experiment: cell_activity
Conditions: CHO-DG44

Sequence: CTGCTTTTTTATACTAAGTTGGCATTATAAAAAAGCATTGCTTATCAATTTGTTGCAACGAACAGGTCACTATCAGTCAAAATAAAATCATTATTTGATTTC / GAAATCAAATAATGATTTTATTTTGACTGATAGTGACCTGTTCGTTGCAACAAATTGATAAGCAATGCTTTTTTATAATGCCAACTTAGTATAAAAAAGCAG / CTGCTTTTTTATACTAACTTG / CAAGTTAGTATAAAAAAGCAG [attL ; attB]
- activity (% fluorescent cells) (attL x attB, with IHF and XIS, PCR verified): 2.3

Sequence: CTGCTTTTTTATACTAAGTTGGCATTATAAAAAAGCATTGCTTATCAATTTGTTGCAACGAACAGGTCACTATCAGTCAAAATAAAATCATTATTTGATTTC / GAAATCAAATAATGATTTTATTTTGACTGATAGTGACCTGTTCGTTGCAACAAATTGATAAGCAATGCTTTTTTATAATGCCAACTTAGTATAAAAAAGCAG / TCTGTTACAGGTCACTAATACCATCTAAGTAGTTGATTCATAGTGACTGCATATGTTGTGTTTTACAGTATTATGTAGTCTGTTTTTTATGCAAAATCTAATTTAATATATTGATATTTATATCATTTTACGTTTCTCGTTCAGCTTTTTTATACTAACTTG / CAAGTTAGTATAAAAAAGCTGAACGAGAAACGTAAAATGATATAAATATCAATATATTAAATTAGATTTTGCATAAAAAACAGACTACATAATACTGTAAAACACAACATATGCAGTCACTATGAATCAACTACTTAGATGGTATTAGTGACCTGTAACAGA [attL ; attR]
- activity (% fluorescent cells) (attL x attR, with IHF and XIS, PCR verified): 3.2

Sequence: CTGCTTTTTTATACTAAGTTGGCATTATAAAAAAGCATTGCTTATCAATTTGTTGCAACGAACAGGTCACTATCAGTCAAAATATAATCATTATTTGATTTC / GAAATCAAATAATGATTATATTTTGACTGATAGTGACCTGTTCGTTGCAACAAATTGATAAGCAATGCTTTTTTATAATGCCAACTTAGTATAAAAAAGCAG / CTGCTTTTTTATACTAACTTG / CAAGTTAGTATAAAAAAGCAG [attL.a ; attB]
- activity (% fluorescent cells) (attL.a x attB, with IHF and XIS, PCR verified): 2

Sequence: CTGCTTTTTTATACTAAGTTGGCATTATAAAAAAGCATTGCTTATCAATTTGTTGCAACGAACAGGTCACTATCAGTCAAAATATAATCATTATTTGATTTC / GAAATCAAATAATGATTATATTTTGACTGATAGTGACCTGTTCGTTGCAACAAATTGATAAGCAATGCTTTTTTATAATGCCAACTTAGTATAAAAAAGCAG / GCTGTTACAGGTCACTAATACCATCTACGTAGTTGATTCATATTGTCTGCATATCTTGTGTTTTACAGTATTATCTAGTCTGTTTTTTATCCAAAATCTAATTTATTATATTGATATTTATATCATTTTACGTTTCTCGTTCAGCTTTTTTATACTAACTTG / CAAGTTAGTATAAAAAAGCTGAACGAGAAACGTAAAATGATATAAATATCAATATAATAAATTAGATTTTGGATAAAAAACAGACTAGATAATACTGTAAAACACAAGATATGCAGACAATATGAATCAACTACGTAGATGGTATTAGTGACCTGTAACAGC [attL.a ; attR.b]
- activity (% fluorescent cells) (attL.a x attR.b, with IHF and XIS, PCR verified): 1.2

Sequence: CTGCTTTTTTATACTAAGTTGGCATTATAAAAAAGCATTGCTTATCAATTTGTTGCAACGAACAGGTCACTATCAGTCAAAATATAATCATTATTTGATTTC / GAAATCAAATAATGATTATATTTTGACTGATAGTGACCTGTTCGTTGCAACAAATTGATAAGCAATGCTTTTTTATAATGCCAACTTAGTATAAAAAAGCAG / GCTGTTACAGGTCACTAATACCATCTATGTAGTTGATTCATATTGTCTGCATATCTTGTGTTTTACAGTATTATCTAGTCTGTTTTTTATCCAAAATCTAATTTATTATATTGATATTTATATCATTTTACGTTTCTCGTTCAGCTTTTTTATACTAACTTG / CAAGTTAGTATAAAAAAGCTGAACGAGAAACGTAAAATGATATAAATATCAATATAATAAATTAGATTTTGGATAAAAAACAGACTAGATAATACTGTAAAACACAAGATATGCAGACAATATGAATCAACTACATAGATGGTATTAGTGACCTGTAACAGC [attL.a ; attR.a]
- activity (% fluorescent cells) (attL.a x attR.a, with IHF and XIS, PCR verified): 2.3

Sequence: GCTGTTACAGGTCACTAATACCATCTACGTAGTTGATTCATATTGTCTGCATATCTTGTGTTTTACAGTATTATCTAGTCTGTTTTTTATCCAAAATCTAATTTATTATATTGATATTTATATCATTTTACGTTTCTCGTTCAGCTTTTTTATACTAAGTTGGCATTATAAAAAAGCATTGCTTATCAATTTGTTGCAACGAACAGGTCACTATCAGTCAAAATATAATCATTATTTGATTTC / GAAATCAAATAATGATTATATTTTGACTGATAGTGACCTGTTCGTTGCAACAAATTGATAAGCAATGCTTTTTTATAATGCCAACTTAGTATAAAAAAGCTGAACGAGAAACGTAAAATGATATAAATATCAATATAATAAATTAGATTTTGGATAAAAAACAGACTAGATAATACTGTAAAACACAAGATATGCAGACAATATGAATCAACTACGTAGATGGTATTAGTGACCTGTAACAGC / CTGCTTTTTTATACTAACTTG / CAAGTTAGTATAAAAAAGCAG [attP.b ; attB]
- activity (% fluorescent cells) (attP.b x attB, with IHF, 0.3% without IHF plasmid): 1.2

Sequence: GCTGTTACAGGTCACTAATACCATCTACGTAGTTGATTCATATTGTCTGCATATCTTGTGTTTTACAGTATTATCTAGTCTGTTTTTTATCCAAAATCTAATTTATTATATTGATATTTATATCATTTTACGTTTCTCGTTCAGCTTTTTTATACTAAGTTGGCATTATAAAAAAGCATTGCTTATCAATTTGTTGCAACGAACAGGTCACTATCAGTCAAAATATAATCATTATTTGATTTC / GAAATCAAATAATGATTATATTTTGACTGATAGTGACCTGTTCGTTGCAACAAATTGATAAGCAATGCTTTTTTATAATGCCAACTTAGTATAAAAAAGCTGAACGAGAAACGTAAAATGATATAAATATCAATATAATAAATTAGATTTTGGATAAAAAACAGACTAGATAATACTGTAAAACACAAGATATGCAGACAATATGAATCAACTACGTAGATGGTATTAGTGACCTGTAACAGC / GCTGTTACAGGTCACTAATACCATCTACGTAGTTGATTCATATTGTCTGCATATCTTGTGTTTTACAGTATTATCTAGTCTGTTTTTTATCCAAAATCTAATTTATTATATTGATATTTATATCATTTTACGTTTCTCGTTCAGCTTTTTTATACTAAGTTGGCATTATAAAAAAGCATTGCTTATCAATTTGTTGCAACGAACAGGTCACTATCAGTCAAAATATAATCATTATTTGATTTC / GAAATCAAATAATGATTATATTTTGACTGATAGTGACCTGTTCGTTGCAACAAATTGATAAGCAATGCTTTTTTATAATGCCAACTTAGTATAAAAAAGCTGAACGAGAAACGTAAAATGATATAAATATCAATATAATAAATTAGATTTTGGATAAAAAACAGACTAGATAATACTGTAAAACACAAGATATGCAGACAATATGAATCAACTACGTAGATGGTATTAGTGACCTGTAACAGC [attP.b ; attP.b]
- activity (% fluorescent cells) (attP.b x attP.b, with IHF, 0.4% without IHF plasmid, 2% in Example 2 cotransfection without IHF (p190)): 1.5

Sequence: GCTGTTACAGGTCACTAATACCATCTATGTAGTTGATTCATATTGTCTGCATATCTTGTGTTTTACAGTATTATCTAGTCTGTTTTTTATCCAAAATCTAATTTATTATATTGATATTTATATCATTTTACGTTTCTCGTTCAGCTTTTTTATACTAAGTTGGCATTATAAAAAAGCATTGCTTATCAATTTGTTGCAACGAACAGGTCACTATCAGTCAAAATATAATCATTATTTGATTTC / GAAATCAAATAATGATTATATTTTGACTGATAGTGACCTGTTCGTTGCAACAAATTGATAAGCAATGCTTTTTTATAATGCCAACTTAGTATAAAAAAGCTGAACGAGAAACGTAAAATGATATAAATATCAATATAATAAATTAGATTTTGGATAAAAAACAGACTAGATAATACTGTAAAACACAAGATATGCAGACAATATGAATCAACTACATAGATGGTATTAGTGACCTGTAACAGC / GCTGTTACAGGTCACTAATACCATCTATGTAGTTGATTCATATTGTCTGCATATCTTGTGTTTTACAGTATTATCTAGTCTGTTTTTTATCCAAAATCTAATTTATTATATTGATATTTATATCATTTTACGTTTCTCGTTCAGCTTTTTTATACTAAGTTGGCATTATAAAAAAGCATTGCTTATCAATTTGTTGCAACGAACAGGTCACTATCAGTCAAAATATAATCATTATTTGATTTC / GAAATCAAATAATGATTATATTTTGACTGATAGTGACCTGTTCGTTGCAACAAATTGATAAGCAATGCTTTTTTATAATGCCAACTTAGTATAAAAAAGCTGAACGAGAAACGTAAAATGATATAAATATCAATATAATAAATTAGATTTTGGATAAAAAACAGACTAGATAATACTGTAAAACACAAGATATGCAGACAATATGAATCAACTACATAGATGGTATTAGTGACCTGTAACAGC [attP.a ; attP.a]
- activity (% fluorescent cells) (attP.a x attP.a, no IHF plasmid): 1.9

Sequence: TCTGTTACAGGTCACTAATACCATCTAAGTAGTTGATTCATAGTGACTGCATATGTTGTGTTTTACAGTATTATGTAGTCTGTTTTTTATGCAAAATCTAATTTAATATATTGATATTTATATCATTTTACGTTTCTCGTTCAGCTTTTTTATACTAAGTTGGCATTATAAAAAAGCATTGCTTATCAATTTGTTGCAACGAACAGGTCACTATCAGTCAAAATAAAATCATTATTTGATTTC / GAAATCAAATAATGATTTTATTTTGACTGATAGTGACCTGTTCGTTGCAACAAATTGATAAGCAATGCTTTTTTATAATGCCAACTTAGTATAAAAAAGCTGAACGAGAAACGTAAAATGATATAAATATCAATATATTAAATTAGATTTTGCATAAAAAACAGACTACATAATACTGTAAAACACAACATATGCAGTCACTATGAATCAACTACTTAGATGGTATTAGTGACCTGTAACAGA / CTGCTTTTTTATACTAACTTG / CAAGTTAGTATAAAAAAGCAG [attP ; attB]
- activity (% fluorescent cells) (attP x attB, with IHF, 1.1% without IHF plasmid): 1.7

Sequence: TCTGTTACAGGTCACTAATACCATCTAAGTAGTTGATTCATAGTGACTGCATATGTTGTGTTTTACAGTATTATGTAGTCTGTTTTTTATGCAAAATCTAATTTAATATATTGATATTTATATCATTTTACGTTTCTCGTTCAGCTTTTTTATACTAAGTTGGCATTATAAAAAAGCATTGCTTATCAATTTGTTGCAACGAACAGGTCACTATCAGTCAAAATAAAATCATTATTTGATTTC / GAAATCAAATAATGATTTTATTTTGACTGATAGTGACCTGTTCGTTGCAACAAATTGATAAGCAATGCTTTTTTATAATGCCAACTTAGTATAAAAAAGCTGAACGAGAAACGTAAAATGATATAAATATCAATATATTAAATTAGATTTTGCATAAAAAACAGACTACATAATACTGTAAAACACAACATATGCAGTCACTATGAATCAACTACTTAGATGGTATTAGTGACCTGTAACAGA / GCTGTTACAGGTCACTAATACCATCTACGTAGTTGATTCATATTGTCTGCATATCTTGTGTTTTACAGTATTATCTAGTCTGTTTTTTATCCAAAATCTAATTTATTATATTGATATTTATATCATTTTACGTTTCTCGTTCAGCTTTTTTATACTAACTTG / CAAGTTAGTATAAAAAAGCTGAACGAGAAACGTAAAATGATATAAATATCAATATAATAAATTAGATTTTGGATAAAAAACAGACTAGATAATACTGTAAAACACAAGATATGCAGACAATATGAATCAACTACGTAGATGGTATTAGTGACCTGTAACAGC [attP ; attR.b]
- activity (% fluorescent cells) (attP x attR.b, with IHF and XIS): 1.1
